From article doi:10.1101/803361
pKd: −log10 of the molar value.

Molecular target: Fluorescein-labelled Hsf1 peptide with the Hsc70 binding site in the TAD, residues 461-471 (human) (UniProt Q00613)
Assay: fluorescence polarisation

Sequence of Fluorescein-labelled Hsf1 peptide with the Hsc70 binding site in the TAD, residues 461-471 (human) (Q00613 whole entry, looked up, the tested form may be a part): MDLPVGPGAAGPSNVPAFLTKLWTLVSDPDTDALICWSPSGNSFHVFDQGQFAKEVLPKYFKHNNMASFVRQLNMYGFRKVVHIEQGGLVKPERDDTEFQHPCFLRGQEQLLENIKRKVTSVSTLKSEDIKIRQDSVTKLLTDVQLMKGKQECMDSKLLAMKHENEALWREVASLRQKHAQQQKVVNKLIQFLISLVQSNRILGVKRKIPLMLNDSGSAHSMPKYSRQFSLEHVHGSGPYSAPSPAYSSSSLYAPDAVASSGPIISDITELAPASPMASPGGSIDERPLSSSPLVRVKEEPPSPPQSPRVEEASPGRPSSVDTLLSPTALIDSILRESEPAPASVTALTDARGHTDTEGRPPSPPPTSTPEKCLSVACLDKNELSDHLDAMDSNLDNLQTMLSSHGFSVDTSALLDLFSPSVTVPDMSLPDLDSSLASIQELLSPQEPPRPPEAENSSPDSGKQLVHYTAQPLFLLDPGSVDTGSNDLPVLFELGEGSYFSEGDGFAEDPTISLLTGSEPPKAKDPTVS
Sequence of Human Hsc70 (HSPA8), wild type (P11142 whole entry): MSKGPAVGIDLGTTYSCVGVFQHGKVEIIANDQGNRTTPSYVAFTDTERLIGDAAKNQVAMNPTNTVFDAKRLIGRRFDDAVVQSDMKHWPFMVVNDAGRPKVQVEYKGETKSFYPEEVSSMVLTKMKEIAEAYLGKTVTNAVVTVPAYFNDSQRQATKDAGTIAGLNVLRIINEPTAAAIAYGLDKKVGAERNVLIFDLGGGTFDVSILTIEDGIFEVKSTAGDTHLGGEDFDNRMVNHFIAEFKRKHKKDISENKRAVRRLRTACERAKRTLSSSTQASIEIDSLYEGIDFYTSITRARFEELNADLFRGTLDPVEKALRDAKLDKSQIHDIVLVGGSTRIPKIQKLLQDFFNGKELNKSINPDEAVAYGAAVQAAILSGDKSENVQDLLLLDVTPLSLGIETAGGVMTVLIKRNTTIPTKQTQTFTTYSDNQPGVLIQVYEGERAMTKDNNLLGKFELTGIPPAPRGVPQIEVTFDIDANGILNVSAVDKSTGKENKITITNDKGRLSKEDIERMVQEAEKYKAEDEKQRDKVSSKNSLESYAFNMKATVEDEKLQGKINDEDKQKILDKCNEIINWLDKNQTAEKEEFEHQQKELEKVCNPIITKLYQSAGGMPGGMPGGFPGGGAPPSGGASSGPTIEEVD

Human Hsc70 (HSPA8), wild type (from UniProt P11142 1-646) (natural protein)
pKd: 4.52 to 5.30
